Test results taken from patent US20150104459A1 (published 2015).

What follows are binders tested against hemagglutinin (HA) of live influenza A/Wisconsin/67/05 (H3N2) virus (influenza A virus A/Wisconsin/67/2005 …) (assay: cell-based or functional assay).

| Binder | % Neutralization [%] |
| --- | --- |
| TCN-535 (5246_P19) (antibody, V domains shown) VH: QVQLVQSGSEVKKPGTSVKVSCTASGSVFTNYGISWVRQAPGQGLEWMGGIIPLFGAAKYAQKFQGRVTITADESTKTVYMELSRLTSKDTAIYFCAKAPRVYEYYFDQWGQGTPVTVSS VL: EIVLTQSPGTLSLSPGERATLSCRASQSVSSSQLAWYQQKPGQAPRLIIYGASTRATGIPDRFSGSGSGTDFTLTIGRLEPEDFAVFFCQQYSTSPPTFGQGTKVDFK | 0 |
| TCN-534 (5249_B02) (antibody, V domains shown) VH: QVQLVQSGAEVKKPGSSVKVSCRESGGTFNGYTITWVRQAPGQGLEWMGGIIPMMGTVNYAQKLQGRVTITTDYFTKTAYMDLNNLRSEDTAMYYCVKIRYTGQQLLWGQGTLVTVSS VL: DIQMTQSPSTLSASIGDRVTITCRASQSIASWLAWYQQKPGKAPKLLIYEAVNLESGVPSRFSGSGSGTDFTLTISSLQPDDFATYFCQHYGTISQTFGGGTKVEIK | 0 |
| TCN-536 (5095_N01) (antibody, V domains shown) VH: QVQLQQWGAGLLKPSETLSLTCAVYGGSFSVSGYYWSWIRQPPGRGLEWIGEISHGGSTNYNPSLKSRVTISVDTTKNQFSLRLSSVTAADTAVYYCARGTDPDTEVYCRVGNCAAFDYWGQGSLVTVSS VL: EIILAQSPGTLSLSPGERATLSCRASQFVSTRSLAWYQQRPGQAPRLLIYGASSRATGIPDRFSGSGSGTDFTLTISRLEPEDFAVYYCQHYGYSPRYAFGQGSKVEIK | 99.9 |
| TCN-539 (5056_A08) (antibody, V domains shown) VH: QVQLVESGGGVVQPGRSLRLSCAASEITFITYAMHWVRQAPGKGLEWVALISDDGSNKFYADSVKGRFTISRDNSKNTLYLQMNSLRAEDTAAYYCAREGVYFDSGTYRGYFDYWGQETLVTVSS VL: EIVLTQSPATLSLSPGERATLSCRASQSVSSYLAWYQQKPGQAPRLLIYDASNRATGIPARFSGSGSGTDFTLTISSLEPEDFAVYYCQQRSHWPPITFGQGTRLEIK | 99 |
| TCN-544 (5082_A19) (antibody, V domains shown) VH: QVQLQESGPGLVKPSETLSLTCTVSRGSIGHYFWSWIRQPPGKGLEWIGYISYSGSTKYNPSLRSRVTISVDTSKNQFSLNLNSVTATDTALYYCAREDYDILTGAGPGMEVWGQGTTVTVSS VL: QSMLTQPPSASGTPGQRVTISCSGSSSNIGSNTVNWFKHLPGTAPKLLIYRNDLRPSGVPDRFSGSKSGTSASLAISGLQSEDEADYYCATWDDSLNGFYVFGTGTKVTVL | 97 |
| TCN-550 (5096_F06) (antibody, V domains shown) VH: QVQLQESGPGLVKPSETLSLTCTVSGASINSHYWSWIRQPPGKGLEWIGYVYYSGSTTYNPSLKSRVTLSVDTSKNQFSLNLSSVTAADTAFYYCARHPYDVLTGSGDWFDPWGQGTLVTVSS VL: SYVLTQAPSVSVAPGQTARITCGGNAIGSKKVHWYQHKAGQAPVLVVYDDTDRPSGIPERFSGSNSWSTATLTINRVEAGDEADYYCQVWDFTIDHVVFGGGTKLTVL | 100 |
| TCN-554 (5277_M05) (antibody, V domains shown) VH: QVQLVQSGADLKKPGASVKVSCKASGYTFTDYYIHWVRQAPGQGLEWMGWINPESGDTKYAQKFQGRVTMTRDTSITTAYMELGRLRSDDTAVYYCARDVSTTWSWFAPWGQGTLVTVSS VL: DIVMTQSPDSLAVSLGERATINCRSSQSIFHNSNNENYLAWYQQKPGQPPKLLIYWASTRESGVPDRFSGSGSGTDFTLTISSLQAEDVAVYFCQQYYNAPLTFGGGTKVEIK [TCN-554 (5277_M05), listing 1 of 2 here] | 100 |

What follows are binders tested against hemagglutinin (HA) of live influenza A/Solomon Islands/3/06 (H1N1) virus (influenza A virus A/Solomon …) (assay: cell-based or functional assay).

| Binder | % Neutralization [%] |
| --- | --- |
| TCN-535 (5246_P19) (antibody, V domains shown) VH: QVQLVQSGSEVKKPGTSVKVSCTASGSVFTNYGISWVRQAPGQGLEWMGGIIPLFGAAKYAQKFQGRVTITADESTKTVYMELSRLTSKDTAIYFCAKAPRVYEYYFDQWGQGTPVTVSS VL: EIVLTQSPGTLSLSPGERATLSCRASQSVSSSQLAWYQQKPGQAPRLIIYGASTRATGIPDRFSGSGSGTDFTLTIGRLEPEDFAVFFCQQYSTSPPTFGQGTKVDFK | 88.6 |
| TCN-534 (5249_B02) (antibody, V domains shown) VH: QVQLVQSGAEVKKPGSSVKVSCRESGGTFNGYTITWVRQAPGQGLEWMGGIIPMMGTVNYAQKLQGRVTITTDYFTKTAYMDLNNLRSEDTAMYYCVKIRYTGQQLLWGQGTLVTVSS VL: DIQMTQSPSTLSASIGDRVTITCRASQSIASWLAWYQQKPGKAPKLLIYEAVNLESGVPSRFSGSGSGTDFTLTISSLQPDDFATYFCQHYGTISQTFGGGTKVEIK | 65.7 |
| TCN-536 (5095_N01) (antibody, V domains shown) VH: QVQLQQWGAGLLKPSETLSLTCAVYGGSFSVSGYYWSWIRQPPGRGLEWIGEISHGGSTNYNPSLKSRVTISVDTTKNQFSLRLSSVTAADTAVYYCARGTDPDTEVYCRVGNCAAFDYWGQGSLVTVSS VL: EIILAQSPGTLSLSPGERATLSCRASQFVSTRSLAWYQQRPGQAPRLLIYGASSRATGIPDRFSGSGSGTDFTLTISRLEPEDFAVYYCQHYGYSPRYAFGQGSKVEIK | 81.6 |

Each binder was assayed against Hemagglutinin of influenza A/Solomon Islands/3/06 (H1N1) on whole virions (Influenza A virus A/Solomon …) (assay: cell-based or functional assay).

| Binder | % Neutralization [%] |
| --- | --- |
| TCN-523 (5248_A17) (antibody, V domains shown) VH: QVQLVQSGAEVKKPGSSVKVSCKASGGSFSNYAFSWVRQAPGQGLEWMGGTIPLLGTTNYAQKFQGRVTISADQFTSTAYMELGSLRSEDTAVYYCTRRKMTTAFDSWGQGTLVTVSS VL: QPVLTQPPSASASLGASVTLTCTLSSAYSNYKVDWYQQRPGKGPRFVMRVGTGGIVGSKGDGIPDRFSVLGSGLNRYLTIKNIQEEDESDYHCGADHGSGSNFVSPYVFGGGTKLTVL | 69 |
| TCN-551 (5243_D01) (antibody, V domains shown) VH: EVQLVQSGSEVKKPGESLKISCKGSGYSFSNYWIGWVRHMPGKGLEWMGIIYPGDSDTRYSPSFQGQVTMSADKSSSTVYLQWSSLKASDTAIYYCARRGGHSFGYGSGGDTHSEFDSWGQGTLVTVSS VL: QSVLTQSPSVSAAPGQKVTISCSGSDSNIGDYFVCWYQHLPGKPPQLLIYENNKRPSGIPDRFSGSKSGTSATLGITGIQTGDEADYYCATWDGSLSAWVFGGGTKLTVL | 100 |
| TCN-552 (5249_I23) (antibody, V domains shown) VH: QVQVVQSGAEVKKPGSSVRVSCQASGGTFMNYAIIWVRRAPGQGLEWMGGIIPVFPTPNYAQMFQGRVTISTDESRSTSFLELTNLRYEDTAVYYCARRIYHGGNSGFDFWGQGTLVTVSS VL: EIVLTQSPATLSLSPGERATLSCRASQSVGNYLAWYQQKPGQAPRLLIYDSSNRAPGIPARFSGSGSGTDFTLTISSLAPEDFAVYYCQQRSKWPPMYSFGHGTKLEIK | 57 |
| TCN-553 (5261_C18) (antibody, V domains shown) VH: QVQVVQSGTEVKKPGSSVKVSCQTSGGRFMSYAITWVRQAPGQGLEWMGGIVPVFGTANYAQKFQGRVTITTDDSTRTAYMELSSLRSEDTAVYYCGFRYGSGYGFDSWGQGTLVTVSS VL: EIVLTQSPGTLSLSPGERATLSCRASQSVSSSYLAWYQKKPGQAPRLLIYGASTRATGIPDRFTGSGSGTDFTLSISRLEPEDFAVYYCQHFGTSVFTFGGGTKVEIK | 87 |
| TCN-554 (5277_M05) (antibody, V domains shown) VH: QVQLVQSGADLKKPGASVKVSCKASGYTFTDYYIHWVRQAPGQGLEWMGWINPESGDTKYAQKFQGRVTMTRDTSITTAYMELGRLRSDDTAVYYCARDVSTTWSWFAPWGQGTLVTVSS VL: DIVMTQSPDSLAVSLGERATINCRSSQSIFHNSNNENYLAWYQQKPGQPPKLLIYWASTRESGVPDRFSGSGSGTDFTLTISSLQAEDVAVYFCQQYYNAPLTFGGGTKVEIK [TCN-554 (5277_M05), listing 2 of 2 here] | 42 |
| TCN-555 (5246_L16) (antibody, V domains shown) VH: QVQLVQSGAEVKRPGSSVKVSCTASGGIFRKNAISWVRQAPGQGLEWMGGIIAVFNTANYAQKFQNRVKITADESGNTAYMELSSLTSDDTAVYYCASHPKYFYGSGSYPDFWGQGTLVTVSS VL: QSALTQPRSVSGSPGQSITISCTGGSSDIGASNSVSWYQQHPGKAPKLVIFDVTERPSGVPHRFSGSKSGNTASLTVSGLQPDDEADYFCCAYGGKYLVVFGGGTKVTVL | 48 |
| TCN-560 (5084_P10) (antibody, V domains shown) VH: EVQLVESGGGLVQPGGSLRLSCAASGFIFRNYWMSWVRQAPGKGLEWVANIKQDGREKYYVDSLRGRVNISRDNAENSLYLHMNSLRVEDTAVYFCARARMVVVTGDGFDVWGHGTMVTVSS VL: DIQMTQSPSSLSASVGDRVTITCRASQNIKRYFNWYQQKPGKAPKLLIYAASNLENGVPSRFSGSGSGTDFTLTISSLQPEDFATYYCQQSFSKSWTFGQGTNVDIK | 94 |
| TCN-563 (5237_B21) (antibody, V domains shown) VH: QVQLAQSGAEVKRPGSSVKVSCTASGGIFRKNAISWVRQAPGQGLEWMGGIIAVFNTANYAQKFQGRVKITADESGNTAYMELSSLRSDDTAVYYCASHPKYFYGSGSYPDFWGQGTLVTVSS VL: QSALTQPRSVSGSPGQSVTISCTGSSSDVGASNSVSWYQQHPGKAPKLVIYDVTERPSGVPHRFSGSKSGNTASLTVSGLQPEDEADYFCCAYGGKYLVVFGGGTKVTVL | 78 |
